The results in this text go back to article PMC4766470.

The target in assay [1] is neurotensin receptor 1 (wild type), expressed in Sf9 insect cells (rat) (UniProt P20789). Briefly: radioligand binding; saturation binding; diluted Sf9 membranes with [3H]-labelled ligand at 30-0.02 nM, 4 °C, 2 h, 50 mM Tris-HCl pH 7.4, 1 mM EDTA, 0.1% BSA; nonspecific binding with 1000-fold excess of unlabelled ligand; filtration; apparent constants.
Assay [2] addresses NTR1-Y06, expressed in Sf9 insect cells (rat) (UniProt P20789). The assay is described as above.

As for “[3,11-tyrosyl-3,5-3H(N)]-neurotensin (peptide)”, the Kd in assay [1] and in assay [2] was 3 nM in each case.
